Data as given in patent publication US20170355769A1 (AbbVie / Abbott, published 2017).

B1: huAb18v8 (antibody, V domains shown)
VH: EVQLVQSGAEVKKPGSSVKVSCKASGYSFTSYTIHWVRQAPGQGLEWIGYINPNSRNTDYNQKFKDRTTLTADRSTSTAYMELSSLRSEDTAVYYCARYSGSTPYWYFDVWGQGTTVTVSS
VL: DIQLTQSPSFLSASVGDRVTITCRASSSVSYMNWYQQKPGKAPKPWIYATSNLASGVPSRFSVSGSGTEHTLTISSLQPEDFATYYCQQWSSNPLTFGQGTKLEIK
notes: humanized IgG
B2: huAb18v6 (antibody, V domains shown)
VH: EVQLVQSGAEVKKPGSSVKVSCKASGYSFTSYTIHWVRQAPGQGLEWMGYINPNSRNTDYAQKFQGRVTLTADKSTSTAYMELSSLRSEDTAVYYCARYSGSTPYWYFDVWGQGTTVTVSS
VL: EIVLTQSPDFQSVTPKEKVTITCRASSSVSYMNWYQQKPDQSPKLLIKATSNLASGVPSRFSGSGSGTDFTLTINSLEAEDAATYYCQQWSSNPLTFGQGTKLEIK
notes: humanized IgG
B3: huAb18v7 (antibody, V domains shown)
VH: EVQLVQSGAEVKKPGSSVKVSCKASGYSFTSYTIHWVRQAPGQGLEWMGYINPNSRNTDYAQKFQGRVTLTADKSTSTAYMELSSLRSEDTAVYYCARYSGSTPYWYFDVWGQGTTVTVSS
VL: EIVLTQSPDFQSVTPKEKVTITCRASSSVSYMNWYQQKPDQSPKPWIYATSNLASGVPSRFSVSVSGTDHTLTINSLEAEDAATYYCQQWSSNPLTFGQGTKLEIK
notes: humanized IgG
B4: huAb18v5 (antibody, V domains shown)
VH: EVQLVQSGAEVKKPGSSVKVSCKASGYSFTSYTIHWVRQAPGQGLEWMGYINPNSRNTDYNQKFKDRVTITADKSTSTAYMELSSLRSEDTAVYYCARYSGSTPYWYFDVWGQGTTVTVSS
VL: EIVLTQSPDFQSVTPKEKVTITCRASSSVSYMNWYQQKPDQSPKLLIKATSNLASGVPSRFSGSGSGTDFTLTINSLEAEDAATYYCQQWSSNPLTFGQGTKLEIK
notes: humanized IgG
B5: huAb18v9 (antibody, V domains shown)
VH: EVQLVQSGAEVKKPGSSVKVSCKASGYSFTSYTIHWVRQAPGQGLEWIGYINPNSRNTDYNQKFKDRTTLTADRSTSTAYMELSSLRSEDTAVYYCARYSGSTPYWYFDVWGQGTTVTVSS
VL: EIVLTQSPDFQSVTPKEKVTITCRASSSVSYMNWYQQKPDQSPKPWIYATSNLASGVPSRFSVSVSGTDHTLTINSLEAEDAATYYCQQWSSNPLTFGQGTKLEIK
notes: humanized IgG
B6: chAb18 (antibody, IgG1, V domains shown)
VH: QVQLQQSAAELARPGASVKMSCKASGYSFTSYTIHWVKQRPGQGLEWIGYINPNSRNTDYNQKFKDETTLTADRSSSTAYMQLISLTSEDSAVYYCARYSGSTPYWYFDVWGAGTTVTVSS
VL: QIVLTQSPAILSASPGEKVTMTCRASSSVSYMNWYQQKPGSSPKPWIYATSNLASGVPARFSVSVSGTSHSLTISRVEAEDAATYYCQQWSSNPLTFGAGTKLELK
notes: chimeric, huIgG1/k
B7: chAb4 (antibody, IgG1, V domains shown)
VH: QVQLQQPGAELVKPGASVKLSCKASGYSFTSYWMHWVKQRPGQGLEWIGMIHPNSGSNNYNEKFKSKATLTVDKSSNTAYMQLSSLTSEDSAVYYCARRLGLHFDYWGQGTTLTVSS
VL: DIVMTQSQKFMSTPVGDRVSITCKASQNVGTAVAWYQQKPGQSPKLLIYSASNRYTGVPDRFTGSGSGTDFTLTISNMQSEDLADYFCQQYSSYPYTFGGGTKLEIK
notes: chimeric, huIgG1/k
B8: chAb2 (antibody, IgG1, V domains shown)
VH: QVQLQQPGAELVKPGASVKLSCKASGYTFTSYWMHWVKQRPGQGLEWIGMIHPDSGTTNYNEKFRSKATLTVDKSSSTAYMQLSSLTSEDSAVYYCAVYYGSTYWYFDVWGTGTTVTVSS
VL: DVVMTQTPLSLPVSLGDQAYISCRSSQSLVHINGNTYLHWYRQKPGQSPKLLIYKVSNRFSGVPDRFSGSGSGTDFTLKISRVEAEDLGVYFCSQSTHFPFTFGSGTKLEIK
notes: chimeric, huIgG1/k
B9: chAb6 (antibody, IgG1, V domains shown)
VH: QVQLQQSGAELMKPGASVKISCKATGYTFSRYWIEWVKQRPGHGLEWIGEILPGSGSTNYNEKFKGKATFTADTSSNTAYMQVSSLTSEDSAVHYCARRGYGYVPYALDYWGQGTSVTVSS
VL: EIQMTQTTSSLSASLGDRVTISCRASQDISNSLNWYQQKPDGTVNLLIYYTSRLYSGVPSRFSGSGSGTDYSLTISNLEQEDIATYFCQQGNTLPYTFGGGTKLEIK
notes: chimeric, huIgG1/k
B10: chAb16 (antibody, IgG1, V domains shown)
VH: EVKLLESGGGLVQPGGSLKLSCAASGFDFSRYWMSWVRQAPGKGLEWIGEINPDSSTINYTPSLKDKFIISRDNAKNTLYLQMSKVRSEDTALYYCARPGFGNYIYAMDYWGQGTSVTVSS
VL: DIQMTQTTSSLSASLGDRVTINCRASQDISNFLNWYQQKPDGTVKLLIYYTSRLYLGVPSRFSGSGSGTDYSLTISNLEQEDIATYFCQQGNTLPPTFGGGTKLEIK
notes: chimeric, huIgG1/k
B11: chAb14 (antibody, IgG1, V domains shown)
VH: EVKLVESGGGLVKPGGSLKLSCAASGFTFSSYGMSWVRQTPEKRLEWVATISGGGTNTYYPDSVEGRFTISRDNAKNFLYLQMSSLRSEDTALYYCARHYGSQTMDYWGQGTSVTVSS
VL: DIQMTQSPASLSASVGETVTITCRTSGNIHNYLTWYQQKQGKSPQLLVYNAKTLADGVPSRFSGSGSGTQFSLKINSLQPEDFGSYYCQHFWSIMWTFGGGTKLEIK
notes: chimeric, huIgG1/k
B12: chAb11 (antibody, IgG1, V domains shown)
VH: EVKLVESGGGLVQPGGSLRLSCATSGFTFTNYYMSWVRQPPGKALEWLGFIRNKANDYTTEYSASVKGRFTISRDNSQSILYLQMNTLRAEDSATYYCARESPGNPFAYWGQGTLVTVSA
VL: DIVMTQSPSSLTVTAGEKVTMTCKSSQSLLNSGTQKNFLTWYQQKPGQPPKLLIYWASTRESGVPDRFTGSGSGTDFTLTISSVQAEDLAVYFCQNDYIYPLTFGAGTKLELK
notes: chimeric, huIgG1/k
B13: chAb2-CZ (antibody, IgG1, V domains shown)
VH: QVQLQQPGAELVKPGASVKLSCKASGYTFTSYWMHWVKQRPGQGLEWIGMIHPDSGTTNYNEKFRSKATLTVDKSSSTAYMQLSSLTSEDSAVYYCAVYYGSTYWYFDVWGTGTTVTVSS
VL: DVVMTQTPLSLPVSLGDQAYISCRSSQSLVHINGNTYLHWYRQKPGQSPKLLIYKVSNRFSGVPDRFSGSGSGTDFTLKISRVEAEDLGVYFCSQSTHFPFTFGSGTKLEIK
modifications: synthon CZ on reduced interchain Cys

Biological target: T1, Human B7-H3-ECD (His tag) (human, UniProt Q5ZPR3 29-461)
T1 construct: SPR analyte; also called huB7-H3; soluble ECD of human B7-H3
T1 sequence: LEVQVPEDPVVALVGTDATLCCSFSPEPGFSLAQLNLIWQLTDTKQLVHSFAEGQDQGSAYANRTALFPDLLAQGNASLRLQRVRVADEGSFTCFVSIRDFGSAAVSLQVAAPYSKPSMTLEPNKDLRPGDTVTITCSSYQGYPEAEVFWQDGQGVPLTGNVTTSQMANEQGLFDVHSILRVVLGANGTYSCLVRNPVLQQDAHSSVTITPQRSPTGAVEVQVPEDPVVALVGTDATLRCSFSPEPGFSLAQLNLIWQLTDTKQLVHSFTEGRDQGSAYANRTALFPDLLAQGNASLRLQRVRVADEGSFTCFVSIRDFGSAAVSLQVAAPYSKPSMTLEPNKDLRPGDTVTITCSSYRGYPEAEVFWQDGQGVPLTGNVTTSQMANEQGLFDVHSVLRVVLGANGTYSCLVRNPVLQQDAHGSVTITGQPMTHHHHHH
Experiment: SPR Biacore, naked mAb
From the text: Biacore T200 SPR instruments were used to measure the binding kinetics of human B7-H3 (analyte) binding to various mAbs (ligands). The assay format was Fc-based capture via immobilized anti-mouse (Fc) (Pierce 31170) or immobilized anti-human (Fc) (Pierce 31125). A standard amine coupling protocol was employed to immobilize the capture reagents via primary amines to the carboxy-methyl (CM) dextran surface of CM5 sensorchips (Biacore); capture antibodies were coupled to a level of approximately 5000RU. For binding kinetic measurements the assay buffer was HBS-EP+ (Biacore): 10 mM Hepes, pH7.4, 150 mM NaCl, 3 mM EDTA, 0.05% polysorbate 20. During the assay, all measurements were referenced against the capture surface alone. Each assay cycle consisted of the following steps: 1) Capture of ligand to approximately 50RU; 2) Analyte injection over both reference and test surface, 240 μL at 80 μL/min, after which the dissociation was monitored for 900 seconds at 80 μL/min; 3) Regeneration of capture surface with low pH glycine. […] Data were processed and fit to a 1:1 binding model using Biacore T200 Evaluation Software to determine the binding kinetic rate constants, kₐ (on-rate) and kd (off-rate), and the equilibrium dissociation constant (affinity, KD).
The parental chAb18 from which the variants were derived was also tested as a comparator.

Binder | Kd [nM]
B1 | 0.25
B2 | 0.2
B3 | 0.4
B4 | 0.23
B5 | 0.38
B6 | 0.17

Biological target: T2, Human full length B7-H3 (human, UniProt Q5ZPR3 29-534)
T2 construct: On 3T12 fibroblasts expressing full length human B7-H3 or on NCI-H1650 cells; signal peptide residues 1-28 stated; also called huB7-H3; CD276
T2 sequence: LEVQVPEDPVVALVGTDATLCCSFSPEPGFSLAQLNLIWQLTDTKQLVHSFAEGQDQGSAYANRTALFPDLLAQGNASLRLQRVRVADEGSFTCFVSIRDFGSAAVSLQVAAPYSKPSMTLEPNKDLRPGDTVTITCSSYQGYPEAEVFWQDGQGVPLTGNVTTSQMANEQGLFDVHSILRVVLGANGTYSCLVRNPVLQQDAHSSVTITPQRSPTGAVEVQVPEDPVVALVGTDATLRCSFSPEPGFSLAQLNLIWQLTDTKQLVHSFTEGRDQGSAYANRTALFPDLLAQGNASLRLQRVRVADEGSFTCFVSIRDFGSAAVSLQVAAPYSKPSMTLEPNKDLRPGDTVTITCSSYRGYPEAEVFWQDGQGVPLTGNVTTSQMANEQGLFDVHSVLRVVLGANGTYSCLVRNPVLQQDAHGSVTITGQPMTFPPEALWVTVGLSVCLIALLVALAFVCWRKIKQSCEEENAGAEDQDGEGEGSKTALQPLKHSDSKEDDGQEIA
Experiment: FACS, NCI-H1650 cells
Method: To generate purified chimeric antibodies, expression vectors were transiently transfected into HEK293 6E suspension cell cultures in a ratio of 60% to 40% light to heavy chain construct. 1 mg/ml of polyethylenimine (PEI) or 2.6 μL/mL of Expifectamine was used to transfect the cells. Cell supernatants were harvested after five days in shaking flasks, spun down to pellet cells, and filtered through 0.22 μm filters to separate IgG from culture contaminants. Antibody-containing supernatants were purified on Akta Pure using protein A mAb SelectSure. Columns were equilibrated in PBS pH 7.4, supernatants were then passed through the column and a wash was performed with PBS pH 7.4. IgG were eluted with 0.1 M acetic acid pH 3.5 and collected in several aliquots. Fractions containing IgG were pooled and dialyzed in PBS overnight at 4° C.
(§1) Cells were harvested from flasks when approximately 80% confluent using Gibco® Cell Dissociation Buffer. Cells were washed once in PBS/1% FBS (FACS buffer) then resuspended at 2.5×10⁶ cells/mL in FACS buffer. 100 μL of cells/well were added to a round bottom 96-well plate. 10 μL of a 10× concentration of mAb/ADC (final concentrations are indicated the figures). Wells were washed twice with FACS buffer and resuspended in 50 μL of secondary Ab (AlexaFluor 488) diluted in FACS buffer. The plate was incubated at 4° C. for one hour and washed twice with FACS buffer. Cells were resuspended in 100 μL of PBS/1% formaldehyde and analyzed on a Becton Dickinson LSRII flow cytometer. Data was analyzed using WinList flow cytometry analysis software.

Binder | EC50 [nM]
B7 | 0.56
B8 | 0.1
B9 | 0.33
B10 | 0.27
B11 | 0.81
B6 | 1.14
B12 | 1.12

Biological target: T2, Human full length B7-H3
Experiment: FACS, cell surface human B7-H3 (as Example 6)
Method: as §1
Nine anti-B7-H3 chimeric antibodies were conjugated to the Bcl-xL inhibiting (Bcl-xLi) synthon CZ (Example 2.1) using conjugation Method A described below. The resulting ADCs (anti-B7-H3 antibodies conjugated to synthon CZ) were tested for binding to cell surface human B7-H3 by FACS (as described in Example 6) and for cell cytotoxicity in cell lines expressing B7-H3. […] Table 6 provides cell surface binding and cytotoxicity activity of anti-B7-H3 chimera ADCs against breast cancer cell HCC38 expressing human B7-H3.

Binder | EC50 [nM]
B13 | 2.6
